Results on one substance are retold here after US6001604.

The test concerns the target SOD-proinsulin hybrid polypeptide expressed by plasmid pBAST-R (SOD-Insulin B chain-Lys-Arg-Insulin A chain hybrid polypeptide) (human).

trypsin (Sigma) (enzyme) registered a human insulin generation after enzymatic cleavage (radioimmunoassay and RP-HPLC) (% of the theoretical yield) of 80.
